± gives the standard deviation of the averaged measurements.
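Further: PSI is a weighted mean of sequencing reads over stability bins, variants kept only with over 10 reads, mCherry proximal and sfGFP distal, peptide attached via GGGS linker.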

In the series the test system is Saccharomyces cerevisiae. The series is described as follows: protein stability index of tFT-peptide fusion (C-terminal peptide) (PSI (0-1 scale)); higher = more stable (slower turnover). To be noted: genetic background: wild type; temperature: 30 C.
MIASGGGGEAAY registered a protein stability index of 0.742 ± 0.081. In turn, MIGWQADSINKI registered a protein stability index of 0.783 ± 0.022.

MISIKNEKKKYT returned a protein stability index of 0.685 ± 0.069. The sequence MITQVIKRRKRK gave a protein stability index of 0.688 ± 0.041. Then MKLWSDALNVVR, with 0.607 ± 0.12; and MKRIRKTKIKAR, with 0.624 ± 0.074; and MKRQQENNAPGR, with 0.616 ± 0.018. MLGHKIILHTYI came in with a protein stability index of 0.54735 ± 0.00019. MLRSGDFSSPPN showed a protein stability index of 0.694 ± 0.042. In the case of MNRKEREKKRIK, the protein stability index worked out at 0.697 ± 0.023. MNVPRQLISRFV had a protein stability index of 0.683 ± 0.064. Take MPHLARVREVVH: the protein stability index worked out at 0.6178 ± 0.0026. Then MQNDKCWVCNQR, with 0.693 ± 0.029.

Take MRIKSMLHHSKV: the protein stability index was determined as 0.66213 ± 0.00021. MRIMERWVMGGG gave a protein stability index of 0.795 ± 0.16.

On to MSLLCPSPPFPT, for which the protein stability index stood at 0.695 ± 0.068. MSWSVSDIADDS showed a protein stability index of 0.657 ± 0.0075. For the sequence MTSSYLCWDVIG, the protein stability index was 0.632 ± 0.071.

Turning to MVRNCPYSLSFL, the protein stability index worked out at 0.734 ± 0.07. Then MVRWGLGRVYGC, with 0.786 ± 0.1. The same measure for MVSSIESHIVLY: 0.66 ± 0.0078; for MYPFKYGFASWV: 0.583 ± 0.016; for NALFDLAVMCLD: 0.664 ± 0.028. Take NALLHPRSHLAF: the protein stability index came out at 0.686 ± 0.033. The same measure for NCSPLCLRVASS: 0.647 ± 0.029. With NDGKTKRVKKRR, the protein stability index was 0.619 ± 0.065. NDQWKKENRGKK yielded a protein stability index of 0.737 ± 0.013. Consider NEQGTIIKRYKK, for which the protein stability index came out at 0.737 ± 0.045. Sequence NESCRNREPGHV had a protein stability index of 0.664 ± 0.1. As to NESSYGNEKNLG, the protein stability index turned out to be 0.723 ± 0.021. Consider NFATLFSLCCLY, for which the protein stability index was determined as 0.611 ± 0.011. In turn, NFFTLTRCTLFI registered a protein stability index of 0.66684 ± 0.00029. NFMTEGYFWRGE gave a protein stability index of 0.767 ± 0.0087. In turn, NFPEATPSNYKV displayed a protein stability index of 0.737 ± 0.015. NFYKKLSNKMGQ displayed a protein stability index of 0.662 ± 0.039. On to NGDPRVHTAVAR, for which the protein stability index was determined as 0.704 ± 0.054. The same measure for NGGGMPDRVVSI: 0.722 ± 0.024.

With NGQVAGVGNVAW, the protein stability index came out at 0.678 ± 0.015. Then NGSAYEGRDYAN, with 0.626 ± 0.02; and NICLPLAHRTPG, with 0.655 ± 0.017. In the case of NIHRKLIKNERV, the protein stability index is 0.694 ± 0.046. NIKKKKKETKNN came in with a protein stability index of 0.676 ± 0.024. The sequence NIKKNQRKEASK displayed a protein stability index of 0.698 ± 0.039. In turn, NKGHGAHSRECE showed a protein stability index of 0.65 ± 0.025.

As to NKIKKKRTEPQP, the protein stability index was 0.66522 ± 7.3e-05.

The sequence NKKKEKKKNEAK returned a protein stability index of 0.684 ± 0.016.

On to NKKKNKKEEHVE, for which the protein stability index is 0.688 ± 0.047.

The sequence NKKTKNNKGNKQ displayed a protein stability index of 0.728 ± 0.063.

Consider NKMLCTTEGVAA, for which the protein stability index was determined as 0.644 ± 0.038.

NKPPGVGHGGVT: the protein stability index came to 0.672 ± 0.025. As for NKRKSKKRNEIE, the protein stability index was determined as 0.6701 ± 0.0054. NKSHFGHSCYLR had a protein stability index of 0.64 ± 0.013. NKTKIKKKKKRG: the protein stability index amounted to 0.657 ± 0.013. In the case of NKYEMRDDTMNI, the protein stability index is 0.681 ± 0.056. For the sequence NLGLSGRYAPCK, the protein stability index is 0.689 ± 0.0072.

For NLRFLFFSSSRF, the protein stability index stood at 0.682 ± 0.017. The same measure for NLSLYFGGVLVL: 0.603 ± 0.027; for NMKPPTNKGSNK: 0.675 ± 0.054; for NMLYRKEGWTKE: 0.655 ± 0.036.

Take NMMTSVLEGGVG: the protein stability index was 0.699 ± 0.16. As to NMVIRLIEKRKK, the protein stability index is 0.663 ± 0.021. In the case of NNKNNKNKIYKK, the protein stability index was 0.679 ± 0.0091. The same measure for NNKRNGRIKRKI: 0.738 ± 0.02. Turning to NNSCPQGHPDAR, the protein stability index was determined as 0.7574 ± 0.0065.
